Experimental findings from patent US20160297891A1 (Zymeworks, published 2016) are described below.

In test [1] the target is T1, HER2 extracellular domain (soluble analyte in SPR) (human). Description: SPR (Biacore T200), variant captured on anti-human Fc, Her2 injected, single cycle kinetics, 25 C.
Test [2] concerns the target T1, HER2 extracellular domain (soluble …). Description: SPR, standard deviation of KD. For orientation: Surface plasmon resonance follows binding to a sensor surface in real time, without labels.
For test [3] the target is unchanged. Put plainly: SPR, the reference itself.

B1: v4182, monovalent (one-armed) anti-HER2 antibody with a Fab derived from pertuzumab on chain A (antibody, IgG1)
heavy: EVQLVESGGGLVQPGGSLRLSCAASGFTFTDYTMDWVRQAPGKGLEWVADVNPNSGGSIYNQRFKGRFTLSVDRSKNTLYLQMNSLRAEDTAVYYCARNLGPSFYFDYWGQGTLVTVSSASTKGPSVFPLAPSSKSTSGGTAALGCLVKDYFPEPVTVSWNSGALTSGVHTFPAVLQSSGLYSLSSVVTVPSSSLGTQTYICNVNHKPSNTKVDKKVEPKSCDKTHTCPPCPAPELLGGPSVFLFPPKPKDTLMISRTPEVTCVVVDVSHEDPEVKFNWYVDGVEVHNAKTKPREEQYNSTYRVVSVLTVLHQDWLNGKEYKCKVSNKALPAPIEKTISKAKGQPREPQVYVYPPSRDELTKNQVSLTCLVKGFYPSDIAVEWESNGQPENNYKTTPPVLDSDGSFALVSKLTVDKSRWQQGNVFSCSVMHEALHNHYTQKSLSLSPG
chain: not shown
light: not shown
notes: also called OA-pert
In test [1], B1 displayed a Kd of 14.9 nM. The “STEDEV KD” value in test [2] is 4.2 nM. Further, in test [3], the KD_wt/KD_var came to 1 fold.

What is called Kd is a measure of binding affinity in units of concentration. Read a low Kd as a tighter complex.
